{"source": "patent US20070098693A1", "about": "“Methods for enhancing engraftment of purified hematopoietic stem cells in allogenic recipients” (priority 2003, published 2007)", "molecules": {"B1": {"name": "FL: Recombinant human Flt-3 Ligand (FL, kindly provided by Amgen, Seattle, Wash.) (protein, UniProt P49771 27-235, looked up)", "Fms-related tyrosine kinase 3 …": "TQDCSFQHSPISSDFAVKIRELSDYLLQDYPVTVASNLQDEELCGGLWRLVLAQRWMERLKTVAGSKMQGLLERVNTEIHFVTKCAFQPPPSCLRFVQTNISRLLQETSEQLVALKPWITRQNFSRCLELQCQPDSSTLPPPWSPRPLEATAPTAPQPPLLLLLLLPVGLLLLAAAWCLHWQRTRRRTPRPGEQVPPVPSPQDLLLVEH"}}, "key": {"[1]": {"test_system": "B220^+/CD11c^dim/CD11b^− p-preDC", "assay": "Cell death of sorted p-preDC after overnight culture (7AAD staining)", "format": "cell-based, mice", "details": "versus fresh cells (data not shown)", "description": "(§1) mAbs and Flow cytometry. The following mAbs (all from BD Biosciences Pharmingen, San Diego, Calif., except those labeled with APC-cy-7 from eBioscience, San Diego, Calif.) were used. To sort CD8^+/TCR^− FC: anti-CD8α (53-6.7) PE-labeled, anti-TCR β chain (H57-597) and anti-TCR γδ chain (GL3) FITC-labeled. To sort B220^+/CD11c^dim/CD11b^− p-preDC: anti-CD11b (M1/70) APC-labeled, anti-CD45R/B220 (RA3-6B2) APC-Cy7-labeled, anti-CD11c (HL3) PE-labeled, and anti-TCR β chain (H57-597), anti-TCR γδ chain (GL3), anti-CD14 (rmC5-3), anti-CD19 (1D3), anti-Pan-NK cells (DX5), and anti-NK1.1 (PK136), all FITC-labeled. To sort HSC: anti-TCR β chain (H57-597), anti-TCR γδ chain (GL3), anti-Ly-6G (Gr-1), anti-CD11b, Mac1 (M1/70), anti-CD8α (53-6.7) and anti-CD45R/B220 (RA3-6B2), all FITC-labeled, anti-Ly-6A/E (Sca-1) (E13-161.7) PE-labeled and anti-c-Kit (CD117) (2B8) APC-labeled. To restain the sorted FC population: purified anti-CD16/CD32 (FcγIII/II receptors) (2.4G2), anti-CD11c (HL3), anti-CD4 (RM4-5) and anti-CD19 (1D3) all APC-labeled, anti-CD45R/B220 (RA3-6B2) PerCP-labeled, and anti-Pan-NK cells (DX5), anti-NK1.1 (PK136), anti-CD14 (rmC5-3), and anti-Ly-6G (Gr-1) FITC-labeled. To analyze the activation state: anti-CD80 (B7-1) ([…]), anti-CD86 (B7-2) ([…]), and anti-I-A^b (Aβ^b) (AF6-120.1) FITC-labeled. For PBL typing and multilineage chimerism: anti-H-2 K^b (AF6-88.5) PE or FITC-labeled, anti-H-2K^k (36-7-5) PE or FITC-labeled, anti-TCR β chain (H57-597), anti-NK1.1 (PK136), anti-Ly-6G (Gr-1), anti-CD11b, Mac1 (M1/70) and anti-CD45R/B220 (RA3-6B2) all FITC-labeled. Detection of dead cells after cell culture was determined by using a 7-Amino-actinomycin D (7-AAD) (Molecular Probes, Eugene, Oreg.) followed by FACS analysis.\nCpG oligodeoxynucleotides (ODN) stimulation. […]"}, "FC from cultured BM": {"test_system": "FC from cultured BM", "assay": "Culture of BMC with FL for 10 days, expansion of FC", "format": "cell-based, mice", "details": "10 days in culture with FL, n=8", "protocol": "(§2) Culture of BMC with FL. BMC were resuspended at 10^6 cells/ml in culture medium consisting of RPMI 1640 (Gibco), 10% FBS (Gibco), 1 mM Sodium pyruvate (Gibco), 10 mM Hepes (Gibco), 2 mM L-Glutamine (Gibco), Penicillin 100 U/mL, 100 μg/mL Streptomycin, (Gibco), and 10^−5 M 2-mercaptoethanol (Sigma), supplemented with human FL (100 ng/ml, generous gift from Amgen, Seattle, Wash.). Every 5 days of culture, half of the medium was replaced by fresh cytokine-supplemented culture medium according to a protocol previously described^30.\n(§3) Cell sorting. HSC, FC, and p-preDC were sorted as previously described^9,30,49. HSC were sorted for Sca-1^+c-Kit^+Lin^− expression, FC were sorted for CD8α^+/TCRαβ^−/TCRγδ^− expression, and p-preDC were sorted for CD11c^dim/CD11b^−/B220^+ expression. Briefly, BMC were incubated with Abs on ice for 30 minutes, cells were washed twice in the CSM, filtered, and resuspended to a final concentration of 2.5×10^6 cells/mL in the CSM for cell sorting. The isolation of the cell populations was performed on FACSVantage Flow Cytometers (Becton Dickinson). The populations of interest were isolated from the live lymphoid gate, and after reanalysis, only cells with a purity of >94% were used."}, "p-preDC from cultured BM": {"test_system": "p-preDC from cultured BM", "assay": "Culture of BMC with FL for 10 days, expansion of p-preDC", "format": "cell-based, mice", "details": "10 days in culture with FL, n=4", "protocol": "as §2, §3"}, "FL-derived p-preDC": {"test_system": "FL-derived p-preDC", "assay": "Cytokine production by sorted FL-derived p-preDC (ELISA)", "format": "cell-based, mice", "details": "p-preDC from FL bone marrow culture, overnight culture", "protocol": "as §2\nCpG oligodeoxynucleotides (ODN) stimulation. Sorted p-preDC or FC were cultured for 18 hours at 10^5 cells/200 μL in 96 well round-bottom culture plates in culture medium in the presence or absence of Toll-like receptor (TLR)-9 ligand, CPG-ODN 1668 (TCCATGACGTTCCGATGCT) (SEQ ID NO. 1) (GibcoBRL Custom Primers) at 1 μM, TLR-4 ligand, LPS from Escherichia coli (Sigma, MO, USA) at 10 μg/ml, as previously described^30. CpG or LPS-treated or untreated cells were subsequently assayed for: 1) the expression of DC activation/maturation cell surface markers by FACS, 2) their survival rate by 7AAD staining, or 3) morphological appearance by Wright Giemsa staining on cytospins. […]\nCytokine production by ELISA. […] The amount of cytokine produced was determined by 1) ELISA kits for mouse IFN-α (R&D system) and mouse TNF-α (Biosource International), and 2). […]"}, "CD8^+/TCR^− FC [2]": {"test_system": "CD8^+/TCR^− FC", "assay": "Cell death of sorted FC after overnight culture (7AAD staining)", "format": "cell-based, mice", "details": "FC from 10 day FL-cultured BM, medium, n=3; versus 53.6% fresh cells", "description": "as §1\n(§4) CpG oligodeoxynucleotides (ODN) stimulation. Sorted p-preDC or FC were cultured for 18 hours at 10^5 cells/200 μL in 96 well round-bottom culture plates in culture medium in the presence or absence of Toll-like receptor (TLR)-9 ligand, CPG-ODN 1668 (TCCATGACGTTCCGATGCT) (SEQ ID NO. 1) (GibcoBRL Custom Primers) at 1 μM, TLR-4 ligand, LPS from Escherichia coli (Sigma, MO, USA) at 10 μg/ml, as previously described^30. CpG or LPS-treated or untreated cells were subsequently assayed for: 1) the expression of DC activation/maturation cell surface markers by FACS, 2) their survival rate by 7AAD staining, or 3) morphological appearance by Wright Giemsa staining on cytospins. The supernatant of these cultures were collected for analysis of the production of different cytokines by ELISA."}, "FC population in PB": {"test_system": "FC population in PB", "assay": "Flt3-ligand treatment of mice, subtypes in the mobilized FC population in PB", "format": "in vivo, B10.BR mice", "protocol": "Flt3-ligand treatment of mice. Recombinant human Flt-3 Ligand (FL, kindly provided by Amgen, Seattle, Wash.) was diluted in sterile, filtered, endotoxin-free water at a concentration of 100 μg/ml. Donor B10.BR mice were subcutaneously injected with 10 μg of FL daily for 10 days. B10.BR control mice were injected with saline only. At the end of the treatment, peripheral blood was harvested and collected into heparinized tubes.\nPhenotypic analysis of sorted FC. Sorted FC isolated from fresh BMC or FL-mobilized peripheral blood, with a purity ranging from 94 to 98%, were incubated with Fc receptor block (anti-CD16/CD32) before staining with different lineage specific markers, including anti-CD4, CD11c, B220, NK1.1, DX5, CD14, Gr1, and CD19. During reanalysis of sorted FC, less than 1% of contaminating T cells (TCRαβ FITC and TCRγδFITC) were detected, which therefore allowed the use of FITC-conjugated specific markers for further analysis. To validate the specificity of staining, various conjugates of the same antibody were used, including CD11c, CD4 and CD19 conjugated to FITC and APC, as well as B220 conjugated with PerCP, APC, or FITC (not shown). To analyze the subtypes of DC in the sorted FC population, sorted FC were blocked and stained with CD11b FITC, CD11c APC and B220 PerCP mAbs to determine the presence of myeloid pre-DC (CD11c^+/B220^−/CD11b^+), p-preDC (CD11c^dim/B220^+/CD11b^−), the common precursor population for DC (CD11c^+/B220^+/CD11b^+) or mature lymphoid DC (CD8α^+/CD11c^+/CD11b^−/B220^−). The cells were washed twice in CSM, and analyzed on a FACS Calibur using Cell Quest Software (Becton Dickinson, Mountainview, Calif.)."}, "CD8^+/TCR^− FC [3]": {"test_system": "CD8^+/TCR^− FC", "assay": "CpG ODN / LPS stimulation of sorted FC, cytokine production by ELISA / multiplex", "format": "cell-based, mice", "details": "FC from 10 day FL-cultured BM, overnight culture, medium", "protocol": "as §4\nCytokine production by ELISA. Briefly, the cell-free supernatants of 12H, 18H, or 24H cultured cells (FC or p-preDC,) with or without CpG ODN or LPS were collected and kept frozen at −80° C. The amount of cytokine produced was determined by 1) ELISA kits for mouse IFN-α (R&D system) and mouse TNF-α (Biosource International), and 2). Multiplex for MIP 1αCCL3), GM-CSF, MCP-1 (CCL2), RANTES (CCL5), IFN-γ, IL-1β, IL-2, IL-4, IL-5, IL-6, IL-10, IL-12p70, IL-9, and IL13 on 18 hour incubation supernatants from three different experiments performed by Linco Diagnostic Services (St. Charles, Mo.)."}, "CD8^+/TCR^− FC [4]": {"test_system": "CD8^+/TCR^− FC", "assay": "Activation marker expression on sorted FC after 18 h culture (FACS)", "format": "cell-based, mice", "details": "FC from 10 day FL-cultured BMC, overnight culture, medium", "description": "as §1, §4"}, "[5]": {"test_system": "B220^+/CD11c^dim/CD11b^− p-preDC", "assay": "Activation marker expression on sorted p-preDC after 18 h culture (FACS)", "format": "cell-based, mice", "details": "p-preDC from 10 day FL-cultured BMC versus fresh p-preDC", "description": "as §1, §4"}, "[6]": {"details": "mice treated with FL for 10 days (data not shown)"}, "[7]": {"details": "mice treated with FL for 10 days, sorted FC from PB"}}, "note": "Several values for one entry are separate records, joined by “and”; a condition that tells them apart may be missing. Identical values can stand only once.", "data": [{"molecule": "B1", "values": [{"measurement": "death of FL-derived p-preDC after overnight culture", "setting": "[1]", "result": "more sensitive to death"}, {"measurement": "increase in FL-derived FC from cultured BM", "setting": "FC from cultured BM", "result": 7, "unit": "fold"}, {"measurement": "increase in FL-p-preDC from cultured BM", "setting": "p-preDC from cultured BM", "result": 17, "unit": "fold"}, {"measurement": "IFN-α production by FL-derived p-preDC", "setting": "FL-derived p-preDC", "result": "also produced IFN-α"}, {"measurement": "death of FL-derived FC after overnight culture", "setting": "CD8^+/TCR^− FC [2]", "result": 71, "unit": "%"}, {"measurement": "expansion of FC in PB", "setting": "FC population in PB; FL-treatment of mice", "result": "significantly expands"}, {"measurement": "FL-FC in the PB expressing CD14", "setting": "FC population in PB; [6]", "result": "none"}, {"measurement": "FL-FC in the PB expressing CD19", "setting": "FC population in PB; [6]", "result": "none"}, {"measurement": "CD11c^bright population (mature DC) in FL-FC", "setting": "FC population in PB; [7]", "result": 20, "unit": "%"}, {"measurement": "CD11c^dim population (p-preDC phenotype) in FL-FC", "setting": "FC population in PB; [7]", "result": "60% and 60-65%"}, {"measurement": "FL-FC in the PB expressing CD11c", "setting": "FC population in PB; [7]", "result": "85-90%"}, {"measurement": "FL-FC in the PB expressing NK1.1", "setting": "FC population in PB; [7]", "result": "5-7%"}, {"measurement": "IFN-α production by FL-derived FC", "setting": "CD8^+/TCR^− FC [3]", "result": "significant amounts of IFN-α"}, {"measurement": "CD80 expression on FL-derived FC", "setting": "CD8^+/TCR^− FC [4]; versus 11% of fresh FC", "result": 47, "unit": "%"}, {"measurement": "CD86 expression on FL-derived FC", "setting": "CD8^+/TCR^− FC [4]; versus 17% of fresh FC", "result": 51, "unit": "%"}, {"measurement": "Class II expression on FL-derived FC", "setting": "CD8^+/TCR^− FC [4]; versus 18% of fresh FC", "result": 40, "unit": "%"}, {"measurement": "CD80 level on FL-derived p-preDC", "setting": "[5]", "result": "upregulated"}, {"measurement": "CD86 level on FL-derived p-preDC", "setting": "[5]", "result": "upregulated"}, {"measurement": "Class II level on FL-derived p-preDC", "setting": "[5]", "result": "upregulated"}]}]}
